# According to article PMC2191818:
# Target: HLA-B*0702 class I heavy chain (free heavy chain, C1R transfectant B7C1R) (human)
# Test: nonreducing SDS-PAGE of immunoprecipitates
substance,measurement,value
"HLA-B*0702 class I heavy chain (free heavy chain, C1R transfectant B7C1R) (natural protein)",stoichiometry N,2
